{
  "source": "paper PMC3415792",
  "about": "(ACS chemical biology, 2011)",
  "key": {"crystal structure": {"biological_target": "the molecule itself", "assay": "crystal structure"}, "[1]": {"biological_target": "soluble human CD40 extracellular domain (human)", "assay": "SPR"}},
  "data": [
    {"binder": "myc tagged form of soluble human CD40L (ligand, glycan (3 glycan chains in the model of the trimer)) NMGDQNPQIAAHVISEASSKTTSVLQWAEKGYYTMSNNLVTLENGKQLTVKRQGLYYIYAQVTFCSNREASSQAPFIASLCLKSPGRFERILLRAANTHSSAKPCGQQSIHLGGVFELQPGASVFVNVTDPSQVSHGTGFTSFGLLKL", "values": [
      {"measurement": "stoichiometry N", "setting": "crystal structure", "result": 3},
      {"measurement": "Kd", "setting": "[1]", "result": "~13", "unit": "µM"}
    ]}
  ]
}
